Data reported in patent US20180134781A1 (Regeneron, published 2018).

What was measured:
human ANGPTL3 = target: T1, human ANGPTL3 (human, UniProt Q9Y5C1 17-460, limits assumed); assay: SPR
T1 construct: also called hANGPTL3
T1 sequence: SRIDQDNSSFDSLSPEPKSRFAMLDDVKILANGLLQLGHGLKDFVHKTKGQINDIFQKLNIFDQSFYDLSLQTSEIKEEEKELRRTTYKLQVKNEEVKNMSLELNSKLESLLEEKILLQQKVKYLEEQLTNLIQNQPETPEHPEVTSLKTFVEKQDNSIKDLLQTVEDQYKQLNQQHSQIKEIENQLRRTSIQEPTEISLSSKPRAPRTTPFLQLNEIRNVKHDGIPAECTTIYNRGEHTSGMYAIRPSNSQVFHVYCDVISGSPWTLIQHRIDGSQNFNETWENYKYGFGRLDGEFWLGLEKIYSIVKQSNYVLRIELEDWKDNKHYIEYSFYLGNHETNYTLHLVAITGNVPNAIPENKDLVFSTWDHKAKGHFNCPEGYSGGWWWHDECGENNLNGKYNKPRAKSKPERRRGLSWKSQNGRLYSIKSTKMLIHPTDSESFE

mouse ANGPTL8 = target: T2, mouse ANGPTL8 (mouse, UniProt Q8R1L8 16-198, limits assumed); assay: SPR
T2 sequence (looked up): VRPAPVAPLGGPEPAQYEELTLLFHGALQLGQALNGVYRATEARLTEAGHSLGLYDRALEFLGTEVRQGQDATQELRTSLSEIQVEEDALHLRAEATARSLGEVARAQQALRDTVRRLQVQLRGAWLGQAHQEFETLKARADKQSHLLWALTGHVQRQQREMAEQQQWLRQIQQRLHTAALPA

human ANGPTL4 = target: T3, human ANGPTL4 (human, UniProt Q9BY76 26-406, limits assumed); assay: SPR
T3 construct: also called hANGPTL4
T3 sequence: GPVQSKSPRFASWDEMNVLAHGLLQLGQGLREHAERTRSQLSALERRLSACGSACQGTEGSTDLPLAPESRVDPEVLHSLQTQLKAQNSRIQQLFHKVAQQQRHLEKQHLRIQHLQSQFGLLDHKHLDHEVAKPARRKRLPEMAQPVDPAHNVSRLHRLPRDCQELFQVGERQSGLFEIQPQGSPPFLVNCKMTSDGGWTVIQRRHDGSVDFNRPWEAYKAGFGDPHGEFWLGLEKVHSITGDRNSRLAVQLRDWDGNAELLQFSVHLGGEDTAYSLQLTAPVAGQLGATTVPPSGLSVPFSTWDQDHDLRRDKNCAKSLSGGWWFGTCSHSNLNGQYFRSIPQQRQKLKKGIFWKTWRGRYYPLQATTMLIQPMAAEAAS

mouse ANGPTL4 = target: T4, mouse ANGPTL4 (mouse, UniProt Q9Z1P8 24-410, limits assumed); assay: SPR
T4 sequence (looked up): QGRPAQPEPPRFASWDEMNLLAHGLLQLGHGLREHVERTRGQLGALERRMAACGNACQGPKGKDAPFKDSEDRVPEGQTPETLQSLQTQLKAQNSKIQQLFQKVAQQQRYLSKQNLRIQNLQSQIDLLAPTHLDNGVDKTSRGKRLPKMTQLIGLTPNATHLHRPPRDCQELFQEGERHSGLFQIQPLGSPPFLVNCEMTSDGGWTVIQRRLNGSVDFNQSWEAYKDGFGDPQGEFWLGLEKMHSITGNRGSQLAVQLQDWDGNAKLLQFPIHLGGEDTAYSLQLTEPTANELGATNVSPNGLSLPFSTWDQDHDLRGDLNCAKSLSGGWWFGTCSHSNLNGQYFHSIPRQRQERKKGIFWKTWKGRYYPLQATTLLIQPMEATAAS

mouse ANGPTL3 = target: T5, mouse ANGPTL3 (mouse, UniProt Q9R182 17-455, limits assumed); assay: SPR
T5 sequence (looked up): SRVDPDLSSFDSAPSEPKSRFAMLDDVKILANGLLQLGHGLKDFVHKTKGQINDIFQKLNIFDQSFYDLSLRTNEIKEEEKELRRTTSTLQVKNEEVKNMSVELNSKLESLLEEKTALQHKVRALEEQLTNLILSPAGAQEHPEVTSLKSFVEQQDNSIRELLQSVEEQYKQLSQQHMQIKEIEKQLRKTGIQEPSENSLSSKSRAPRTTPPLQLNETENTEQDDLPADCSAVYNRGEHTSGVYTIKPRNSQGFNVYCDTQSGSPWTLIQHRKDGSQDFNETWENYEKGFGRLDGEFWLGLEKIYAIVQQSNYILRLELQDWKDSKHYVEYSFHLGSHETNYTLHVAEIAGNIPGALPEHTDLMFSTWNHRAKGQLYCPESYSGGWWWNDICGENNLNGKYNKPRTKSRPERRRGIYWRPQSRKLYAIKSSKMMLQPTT

[1] = target: T6, hLDLR-mFc (negative control protein with the same mFc tag) (human, UniProt P01130 22-788); assay: BLI (Octet HTX), hLDLR-mFc captured on AMC sensor
T6 construct: also called Irrelevant control; not shown: mFc tag ('the same mFc tag', mouse IgG2a Fc)
T6 sequence (P01130 22-788): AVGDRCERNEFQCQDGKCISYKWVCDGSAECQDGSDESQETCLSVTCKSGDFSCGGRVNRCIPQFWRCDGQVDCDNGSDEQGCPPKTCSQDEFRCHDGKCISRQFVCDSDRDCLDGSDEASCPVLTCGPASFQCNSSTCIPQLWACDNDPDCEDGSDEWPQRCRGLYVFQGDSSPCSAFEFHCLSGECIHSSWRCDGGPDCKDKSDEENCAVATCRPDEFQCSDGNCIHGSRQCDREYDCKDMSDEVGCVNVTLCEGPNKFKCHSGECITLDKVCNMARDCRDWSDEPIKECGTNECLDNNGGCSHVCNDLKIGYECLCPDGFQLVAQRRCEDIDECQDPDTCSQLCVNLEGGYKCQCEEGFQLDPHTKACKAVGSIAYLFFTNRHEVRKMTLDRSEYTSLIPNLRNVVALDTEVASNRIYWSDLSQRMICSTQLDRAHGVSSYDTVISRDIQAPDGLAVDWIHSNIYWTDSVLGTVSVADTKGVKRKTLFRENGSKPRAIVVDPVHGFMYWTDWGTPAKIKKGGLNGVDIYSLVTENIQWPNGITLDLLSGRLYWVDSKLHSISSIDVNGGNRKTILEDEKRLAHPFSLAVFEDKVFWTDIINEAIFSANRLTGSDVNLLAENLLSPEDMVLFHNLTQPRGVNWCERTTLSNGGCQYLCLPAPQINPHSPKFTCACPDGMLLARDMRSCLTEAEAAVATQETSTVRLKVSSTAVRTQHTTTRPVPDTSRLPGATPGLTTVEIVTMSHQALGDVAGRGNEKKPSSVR
Protocol: (§1) Binding of ANGPTL8 antibodies to human and monkey ANGPTL8 proteins was investigated using Bio-layer Interferometry with an Octet HTX biosensor platform (ForteBio, A Division of Pall Life Sciences). All experiments were performed at 25° C. in 10 mM HEPES pH 7.4, 150 mM NaCl, 0.05% v/v Surfactant Tween-20, and 1 mg/ml BSA with the reaction multiwell plate agitated at 1000 rpm. Approximately 1.6 nm of human ANGPTL8 produced with a C-terminal mouse IgG2a Fc tag (hANGPTL8-mFc; SEQ ID NO: 340) or cynomolgus monkey ANGPTL8 produced with a C-terminal mouse IgG2a Fc tag (MfANGPTL8-mFc; SEQ ID NO: 341) was captured onto anti-mFc (AMC) Octet biosensors by submerging the sensors into wells containing 10 μg/mL of each protein for 4 minutes. Under the same conditions a negative control protein with the same mFc tag (hLDLR-mFc) was also coupled to the AMC sensor. All four sensors, […] and one blank, were then submerged into wells containing 100 nM of different ANGPTL8 monoclonal antibodies or an isotype control for 4 minutes.

[2] = target: T7, monkey ANGPTL8 expressed with C-terminal mouse IgG2a Fc tag (cynomolgus monkey); assay: BLI (Octet HTX), MfANGPTL8-mFc captured on AMC sensor
T7 construct: also called MfANGPTL8-mFc; mfANGPTL8-mFc
T7 chain: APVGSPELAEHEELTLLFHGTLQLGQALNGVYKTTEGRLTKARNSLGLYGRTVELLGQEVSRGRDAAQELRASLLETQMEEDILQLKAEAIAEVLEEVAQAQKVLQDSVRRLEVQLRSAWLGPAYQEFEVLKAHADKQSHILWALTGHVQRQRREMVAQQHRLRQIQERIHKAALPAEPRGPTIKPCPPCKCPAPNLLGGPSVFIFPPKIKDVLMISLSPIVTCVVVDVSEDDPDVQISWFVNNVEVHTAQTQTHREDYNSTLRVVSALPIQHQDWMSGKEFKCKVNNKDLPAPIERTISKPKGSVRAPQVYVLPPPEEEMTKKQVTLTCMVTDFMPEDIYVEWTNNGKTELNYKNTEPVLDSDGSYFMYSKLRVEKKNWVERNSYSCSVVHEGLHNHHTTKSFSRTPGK
Protocol: as §1

[3] = target: T8, human ANGPTL8 expressed with C-terminal mouse IgG2a Fc tag (human); assay: BLI (Octet HTX), hANGPTL8-mFc captured on AMC sensor
T8 construct: also called hANGPTL8-mFc; hANGPTL8.mFc
T8 chain: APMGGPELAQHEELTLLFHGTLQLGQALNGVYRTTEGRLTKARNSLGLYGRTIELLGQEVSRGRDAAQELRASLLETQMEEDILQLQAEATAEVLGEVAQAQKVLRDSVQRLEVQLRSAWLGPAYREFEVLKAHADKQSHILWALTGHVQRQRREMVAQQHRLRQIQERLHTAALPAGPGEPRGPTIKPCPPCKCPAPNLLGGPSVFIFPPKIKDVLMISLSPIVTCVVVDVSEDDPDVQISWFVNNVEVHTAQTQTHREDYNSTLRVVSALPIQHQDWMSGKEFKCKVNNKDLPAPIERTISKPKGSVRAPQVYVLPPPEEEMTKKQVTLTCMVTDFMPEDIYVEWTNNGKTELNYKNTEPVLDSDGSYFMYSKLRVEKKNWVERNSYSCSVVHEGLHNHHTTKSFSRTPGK
Protocol: as §1

Row | Binder | binding result (human ANGPTL3) | binding result (mouse ANGPTL8) | binding result (human ANGPTL4) | binding result (mouse ANGPTL4) | binding result (mouse ANGPTL3) | binding result [1] | binding result [2] | binding result [3]
1 | H4H15341P (antibody, human IgG4, V domains shown, also called anti-hANGPTL8) VH: EVQLVESGGGLVQPGGSLRLSCAASGFTFNNHEMNWVRQAPGKGLEWVSYISSSGNTVTYADFLKGRFTISRDNAKNSLFLQMNSLRDEDTAVYYCARDHLSGTSPLSYWGQGTLVTVSS VL: DIQMTQSPSSLSASVGDRVTITCQASQDINNYLNWFQQKPGKAPKLLIFDASNLETGVPSRFSGSGSGTDFTFTISSLQPEDIATYFCQQYENLPYTFGQGTKLEIK | no binding | no binding | no binding | no binding | no binding | no binding (tested: 0.03 nm at 100 nM mAb) | – | –
2 | H4H15314P2 (antibody, human IgG4, V domains shown, human IgG4 Fc (H4H prefix)) VH: QVQLVQSGAEVKKPGASVKVSCKASGYTFTSYDINWVRQATGQGLEWMGWMNPNGDNTGYAQKFQGRVTMTGDTSISTAYMELSSLRSEDTAVYYCAREGIWGFDPWGQGTLVTVSS VL: DIQMTQSPSSLSASVGDRVTITCRASQDIRNDLGWYQQKPGKAPKRLIYAASSLQSGVPSRFSGSGSGTEFTLTISSLQPEDFATFYCLQHNTFPRTFGQGTKVEIK | – | – | – | – | – | no binding (tested: 0.03 nm at 100 nM mAb) | no binding (tested: background 0.03 nm at 100 nM mAb) | –
3 | H4H15316P (antibody, human IgG4, V domains shown, human IgG4 Fc (H4H prefix)) VH: EVQLVESGGGLVQPGRSLRLSCAASGFIFDDYDMHWVRQAPGKGLEWVSGISWNSGSKGYADSVKGRFTISRDNAKNSLYLQMNSLRAEDTALYYCTKGPWDYFDYWGQGTLVTVSS VL: not shown | – | – | – | – | – | no binding (tested: 0.03 nm at 100 nM mAb) | no binding (tested: background 0.03 nm at 100 nM mAb) | no binding (tested: background 0.03 nm at 100 nM mAb)
